The values below come from PMC5814282, “Biophysical studies and NMR structure of YAP2 WW domain - LATS1 PPxY motif complexes reveal the basis of their interaction” (Oncotarget, 2018).

By Kd is commonly meant a measure of binding affinity in units of concentration. Low readings indicate higher affinity, high ones lower affinity.

In assay [1] the target is T1, YAP2 WW1 domain (aa 163-206) (human, UniProt P46937-2 163-206).
T1 construct: YES-associated protein, isoform YAP2 (YAP1-2, two WW domains), human, first WW domain, aa 163-206; cloned into pGEX-6P-1
The assay is described as follows: ITC; protein 20 to 70 uM titrated against peptide 0.5 to 1.8 mM, 25°C, 20 mM Tris-HCl pH 7.0, 100 mM NaCl; single ligand binding site model. Conditions: both partners purified.

Assay [2] deals with T2, LATS1 PY12 (both PPxY motifs; aa 361-567) (UniProt O95835 361-567).
T2 construct: LATS1, region with both PPxY motifs, aa 361-567; cloned into pACYC; 15N-labelled in one of the NMR titrations; source: E. coli BL21 (DE3), purified
T2 sequence (looked up): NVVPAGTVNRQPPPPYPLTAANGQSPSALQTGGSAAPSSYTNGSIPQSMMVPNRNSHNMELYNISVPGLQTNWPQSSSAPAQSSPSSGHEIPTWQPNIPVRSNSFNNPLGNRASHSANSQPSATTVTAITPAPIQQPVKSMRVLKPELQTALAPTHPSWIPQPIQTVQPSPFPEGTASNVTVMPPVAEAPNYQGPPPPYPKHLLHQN
Description: ITC; WW12 vs PY12; 20 mM Tris-HCl pH 7.0, 100 mM NaCl, 3% glycerol, 2 mM DTT, 2 mM EDTA; single ligand binding site model. The conditions noted are these: both partners purified.

B1: LATS1 PPxY1 peptide mutant R to A (peptide)
peptide: NAQPPPPYPLTA
notes: also called PPxY1m; PPxY1R→A; source: synthetic peptide, bought: GL BioChem
B1 came in with a Kd in assay [1] of 14 µM.

B2: YAP2 WW12 (both WW domains; aa 163-266) (domain or fragment, human, UniProt P46937-2 163-266, looked up)
chain: SSFEIPDDVPLPAGWEMAKTSSGQRYFLNHIDQTTTWQDPRKAMLSQMNVTAPTSPPVQQNMMNSASGPLPDGWEQAMTQDGEIYYINHKNKTTSWLDPRLDPR
notes: YES-associated protein, isoform YAP2 (YAP1-2), human, both WW domains, aa 163-266; cloned into pGEX-6P-1; 15N-labelled in one of the NMR titrations; source: also co-expressed with PY12 and co-purified
For the molecule B2, in assay [2], the Kd was 9.6 µM.

B3: LATS1 PPxY2 peptide mutant Q to A (peptide)
peptide: NYAGPPPPYPKH
notes: LATS1 PPxY2 peptide aa 551-562 with the Q at P1-3 changed to A; also called PPxY2m; PPxY2 Q→A; source: synthetic peptide, bought: GL BioChem
B3 registered an equilibrium dissociation constant (Kd) in assay [1] of 4.4 µM.
